Test results taken from PMC4070737 (Cytoskeleton (Hoboken, N.J.), 2013).

Target: the molecule itself
Assay: AUC

B1: EB1_(248), activated fragment of human EB1 lacking the autoinhibitory tail domain (domain or fragment, UniProt Q15691 1-248, looked up)
chain: MAVNVYSTSVTSDNLSRHDMLAWINESLQLNLTKIEQLCSGAAYCQFMDMLFPGSIALKKVKFQAKLEHEYIQNFKILQAGFKRMGVDKIIPVDKLVKGKFQDNFEFVQWFKKFFDANYDGKDYDPVAARQGQETAVAPSLVAPALNKPKKPLTSSSAAPQRPISTQRTAAAPKAGPGVVRKNPGVGNGDDEAAELMQQVNVLKLTVEDLEKERDFYFGKLRNIELICQENEGENDPVLQRIVDILYA
- stoichiometry N: 2
